Experimental findings from patent publication US20030224453A1, “Structural models for cytoplasmic domains of transmembrane receptors” (priority 1998, published 2003) are described below.

Ends that are not written are not given here.

Test [1] concerns the target T1, integrin β3 cytoplasmic domain (Homo sapiens, UniProt P05106).
T1 sequence (P05106 742-788 limits assumed): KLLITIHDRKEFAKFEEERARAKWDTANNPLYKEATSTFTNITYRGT
Nature of the test: Immunochemical ELISA: αIIb peptides added to fixed saturating β3 peptide, competition for anti-model protein antibody binding to coated αIIbβ3 (EC50 determination). As to conditions: for EC50: dose of αIIb peptide resulting in B/B0=0.5 with fixed saturating β3 peptide (20-50 nM). The text has this: Antibodies raised against a mimic of the present invention were used in an immunochemical assay to identify compounds that bind to the 3 cytoplasmic domain and induce a conformation change. In this assay, the binding of the αIIb and β3 cytoplasmic tails was first analyzed. […] Furthermore, as shown in this Table, point mutations or deletions that disrupted this heptapeptide sequence in the αIIb cytoplasmic domain also disrupted interaction with β3.
αIIbβ3 was purified by gel filtration in accordance with procedures described by Du et al. (Cell 65:409-416 (1991)) with omission of the heparin and Con A affinity chromatography steps. The final product was greater than 95% homogenous as judged by SDS PAGE. In the enzyme-linked immunosorbent assay (ELISA) the αIIbβ3 was used at a concentration of 5 μg/ml in a coating buffer containing 0.1 M NaHCO3 and 0.05% NaN3. Fifty ul/well was used to coat IMMULON II microtiter wells at 4° C. overnight. After removal of the coating solution, 150 Al blocking buffer (coating buffer containing 5% bovine serum albumin) was added. After an additional one hour incubation at 4° C., the blocking buffer was removed and the plates were washed three times with wash buffer (0.01 M Tris, 0.15 M NaCl, 0.01% thimerisol, 0.05% Tween 20, pH 8.0). Twenty-five microliters of the competitor was added to each well followed by 25 μl of a dilution of the anti-model protein antibody. Following mixing, the plate was covered for one hour at 37° C. and washed four times with wash buffer. To quantify bound antibody, 50 μl of horseradish peroxidase-conjugated goat anti-rabbit IgG (Biorad) was diluted to a concentration of 1/1000 in wash buffer containing 1 mg/ml bovine serum albumin. These plates were then incubated at 37° C. for 1.5 hours. After four washes, bound antibody was assayed by measuring peroxidase activity with O-phenylenediamine as a substrate and quantifying reaction product by its optical density at 490 nm. Data were expressed as B/B0 where B=A490 in the presence of competitor and B0=A490 in its absence. In some experiments, varying concentrations of αIIb peptides were added to a fixed, saturating, quantity of β3 peptide (20-50 nM). Competition was again expressed as B/BO, however, B0 was the A490 in the presence of the β3 peptide and no added αIIb peptide. EC50 was defined as the dose of αIIb resulting in B/B0=0.5.
(In general: In an ELISA, binding on a coated surface is turned into a signal by an enzyme label.)

The subject of a further test is platelet αIIbβ3. Nature of the test: ELISA: inhibition by competitor of anti-mimic antibody reactivity with native platelet αIIbβ3. The test is classed as binding, human. As to conditions: antibody raised against FIG. 2 heterodimeric mimic; result in words. The method, then: Antibodies against these heteromeric complexes of the present invention that recognize combinatorial epitopes of the cytoplasmic domains of the complex can be produced in accordance with well known techniques. For example, antibodies were prepared against the heterodimeric complex of FIG. 2. […] Thus, this antibody recognized combinatorial epitopes in the cytoplasmic domain of the native receptor that were mimicked in the model protein.
Antibodies to the model protein depicted in FIG. 2 were raised in 2.5 kg New Zealand white rabbits. One hundred microliters of a water solution containing 1 mg/ml of the model protein was emulsified in 1 ml incomplete Freund's adjuvant and administered subcutaneously to each New Zealand white rabbit. Two additional injections at 2-week intervals were followed by bleeding (approximately 50 mls) at monthly intervals until the rabbits were sacrificed. Blood was permitted to clot at room temperature, and the serum was recovered by centrifugation. Serum was heat inactivated at 56° C. for 30 minutes and stored at −20° C. A pre-immune serum, obtained prior to immunization, was used as a control.
αIIbβ3 was purified by gel filtration in accordance with procedures described by Du et al. (Cell 65:409-416 (1991)) with omission of the heparin and Con A affinity chromatography steps. […] To quantify bound antibody, 50 μl of horseradish peroxidase-conjugated goat anti-rabbit IgG (Biorad) was diluted to a concentration of 1/1000 in wash buffer containing 1 mg/ml bovine serum albumin. […] After four washes, bound antibody was assayed by measuring peroxidase activity with O-phenylenediamine as a substrate and quantifying reaction product by its optical density at 490 nm. Data were expressed as B/B0 where B=A490 in the presence of competitor and B0=A490 in its absence. In some experiments, varying concentrations of αIIb peptides were added to a fixed, saturating, quantity of β3 peptide (20-50 nM). Competition was again expressed as B/BO, however, B0 was the A490 in the presence of the β3 peptide and no added αIIb peptide. […]

Test [2] addresses T2, Full-length β3 peptide (β3 cytoplasmic tail) (UniProt P05106 742-788, limits assumed).
T2 construct: domain: cytoplasmic domain; also called wild-type β3
T2 peptide (looked up): T1 sequence (P05106 742-788 limits assumed)
Nature of the test: αIIb peptide titrated with fixed saturating β3 peptide; inhibition of antibody binding to coated αIIbβ3 (ELISA), EC50 at B/B0=0.5.

For another test, the target named is talin (Homo sapiens, UniProt Q9Y490). Nature of the test: Affinity chromatography of cell lysates on cytoplasmic domain mimics, talin detected. It is filed as binding. Also on record: endogenous in cells; host or cells: human platelets (also Jurkat, HT1080, mouse C2C12 myotubes). The following applies: NHS-biotin-labeled human platelet lysates; result in words. The text has this: To study possible influences of the structural changes induced by the Gly insertions, protein models were produced having the β1A cytoplasmic domain with one, two and three additional Gly residues inserted after the heptad-repeat motif (G2-, G3-, G4-β1A) and compared with the G1-β1A construct. As an additional control, a variant of the G4-β1A peptide was produced with a Tyr to Ala substitution in the membrane-proximal NPXY-motif (G4-β1A-Y788A) (FIG. 1). This mutation interferes with focal adhesion targeting and activation of integrins. The purified proteins were bound via their N=terminal His-Tag to a Ni^2+−resin and used in affinity chromatography experiments with lysates of NHS-biotin-labeled human platelets. Marked changes in the pattern of protein binding were observed as a consequence of the Gly insertions. Polypeptides migrating at 45, 56, 58, 140 and 240 kDa bound only to the mimics with Gly insertions. […] Using monoclonal antibodies, the 240 kDa and 45 kDa proteins were identified as filamin and actin, respectively. […] Talin bound to the G1- and G4-β1A construct but not to the Y788A-G4β1A construct. Thus, the structural changes in the model induced by the insertion of glycines into the coiled-coil motif and the integrin cytoplasmic domain sequence alter interactions of these proteins with cellular components. Alterations of the β1A tail that block cytoskeletal interactions, such as the Y788 mutation and β1B- and β1C-splice variants also abrogate binding to talin and filamin. Consequently, the observed in vitro interactions are likely to be biologically relevant.
Human platelets were obtained by centrifugation of freshly drawn blood samples at 1000 rpm for 20 minutes and sedimentation of the resulting platelet-rich plasma at 2600 rpm for 15 minutes. They were washed twice with 0.12 M NaCl, 0.0129 M trisodium citrate, 0.03 M glucose, pH 6.5, and once in Hepes-Saline (3.8 mM Hepes, 137 mM NaCl, 2.7 mM KCl, 5.6 mM D-Glucose, 3.3 mM Na2HPO4, pH 7.3-7.4). […]

For test [3], the target named is T2, Full-length β3 peptide (β3 cytoplasmic …). Nature of the test: competitive ELISA with β3 peptide and anti-model protein antibody on coated αIIbβ3.

talin, sequence (Q9Y490 whole entry, the tested form may be a part): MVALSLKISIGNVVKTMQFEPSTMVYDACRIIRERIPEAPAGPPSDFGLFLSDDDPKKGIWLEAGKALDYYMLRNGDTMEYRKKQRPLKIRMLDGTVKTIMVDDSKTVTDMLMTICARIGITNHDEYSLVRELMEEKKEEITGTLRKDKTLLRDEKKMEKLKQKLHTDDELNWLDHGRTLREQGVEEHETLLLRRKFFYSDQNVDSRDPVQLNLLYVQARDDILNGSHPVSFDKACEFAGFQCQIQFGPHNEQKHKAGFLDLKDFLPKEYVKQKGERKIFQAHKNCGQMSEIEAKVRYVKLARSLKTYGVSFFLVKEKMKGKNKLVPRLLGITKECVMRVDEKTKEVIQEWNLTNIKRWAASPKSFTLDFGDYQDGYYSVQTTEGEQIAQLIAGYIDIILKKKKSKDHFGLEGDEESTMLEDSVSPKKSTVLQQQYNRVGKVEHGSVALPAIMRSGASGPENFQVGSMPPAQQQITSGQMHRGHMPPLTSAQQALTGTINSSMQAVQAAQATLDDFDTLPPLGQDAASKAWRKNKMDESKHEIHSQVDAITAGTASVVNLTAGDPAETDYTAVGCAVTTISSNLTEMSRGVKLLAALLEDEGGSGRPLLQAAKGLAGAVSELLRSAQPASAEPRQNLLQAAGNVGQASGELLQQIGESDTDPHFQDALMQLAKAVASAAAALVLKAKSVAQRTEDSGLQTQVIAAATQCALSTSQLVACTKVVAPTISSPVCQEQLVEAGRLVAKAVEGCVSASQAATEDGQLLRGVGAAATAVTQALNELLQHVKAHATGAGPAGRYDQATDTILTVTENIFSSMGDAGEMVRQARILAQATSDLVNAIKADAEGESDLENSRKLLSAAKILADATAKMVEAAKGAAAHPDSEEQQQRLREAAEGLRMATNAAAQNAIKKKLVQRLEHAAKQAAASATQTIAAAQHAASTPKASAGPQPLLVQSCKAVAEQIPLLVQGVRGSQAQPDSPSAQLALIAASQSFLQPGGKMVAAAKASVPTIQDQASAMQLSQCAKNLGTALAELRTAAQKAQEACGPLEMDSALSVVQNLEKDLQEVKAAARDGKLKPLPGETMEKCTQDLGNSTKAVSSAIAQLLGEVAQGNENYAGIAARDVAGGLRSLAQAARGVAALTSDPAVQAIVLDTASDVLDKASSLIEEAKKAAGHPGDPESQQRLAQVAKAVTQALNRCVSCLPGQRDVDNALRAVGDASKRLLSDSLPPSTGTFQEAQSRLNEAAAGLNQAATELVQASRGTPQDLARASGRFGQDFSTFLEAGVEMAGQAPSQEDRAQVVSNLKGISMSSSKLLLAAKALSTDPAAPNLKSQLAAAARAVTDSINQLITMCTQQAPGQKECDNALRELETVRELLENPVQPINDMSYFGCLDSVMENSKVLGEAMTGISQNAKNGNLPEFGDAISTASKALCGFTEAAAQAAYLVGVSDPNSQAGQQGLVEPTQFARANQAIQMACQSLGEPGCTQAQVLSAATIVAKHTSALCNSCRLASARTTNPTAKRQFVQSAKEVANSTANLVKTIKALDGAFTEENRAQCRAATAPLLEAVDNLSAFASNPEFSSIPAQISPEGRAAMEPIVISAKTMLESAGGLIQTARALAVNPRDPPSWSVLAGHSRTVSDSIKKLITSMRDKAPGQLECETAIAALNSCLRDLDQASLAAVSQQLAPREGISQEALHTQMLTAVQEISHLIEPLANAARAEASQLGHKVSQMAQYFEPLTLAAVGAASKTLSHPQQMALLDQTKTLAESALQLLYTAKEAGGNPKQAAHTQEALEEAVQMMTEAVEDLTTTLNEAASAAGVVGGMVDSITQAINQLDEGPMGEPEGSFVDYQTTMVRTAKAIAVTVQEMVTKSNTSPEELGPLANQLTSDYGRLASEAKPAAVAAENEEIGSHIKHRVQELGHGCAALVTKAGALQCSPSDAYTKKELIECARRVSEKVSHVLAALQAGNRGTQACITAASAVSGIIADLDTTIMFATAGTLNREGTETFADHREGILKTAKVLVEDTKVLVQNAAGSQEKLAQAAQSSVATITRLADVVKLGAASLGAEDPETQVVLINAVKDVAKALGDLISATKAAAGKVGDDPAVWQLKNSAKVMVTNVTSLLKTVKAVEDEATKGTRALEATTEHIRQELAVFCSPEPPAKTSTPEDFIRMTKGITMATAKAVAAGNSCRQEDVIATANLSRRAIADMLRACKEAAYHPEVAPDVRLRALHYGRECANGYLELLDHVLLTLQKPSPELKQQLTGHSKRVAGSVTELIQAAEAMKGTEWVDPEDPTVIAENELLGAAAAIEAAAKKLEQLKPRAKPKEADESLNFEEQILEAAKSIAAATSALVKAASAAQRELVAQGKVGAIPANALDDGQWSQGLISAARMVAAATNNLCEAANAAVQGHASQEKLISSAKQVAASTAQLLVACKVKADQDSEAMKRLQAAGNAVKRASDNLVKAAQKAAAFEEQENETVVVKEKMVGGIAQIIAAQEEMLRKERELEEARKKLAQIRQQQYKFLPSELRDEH

On to “full-length αIIb peptide: full-length linear peptide of the αIIb cytoplasmic domain (KVGFFKRNRPPLEEDDEEGE)”, for which the “interaction with β3 cytoplasmic tail (induces conformation change seen by antibody)” value in test [1] (result in words) is “apparent affinity of the interaction was high”. Besides, the “inhibition of antibody reactivity with platelet αIIbβ3” value in the test with platelet αIIbβ3 is recorded as “not inhibited”.
For orientation: EC50 means the concentration that produces a half-maximal response. Low readings indicate an effect from little substance, high ones a need for much substance. Turning to KVGFFKRNRPPLEE, the EC50 in test [1] is more than 1000 nM.
With PPLEED [PPLEED], the EC50 in test [1] was more than 1000 nM.
With “β3 (Y747A) mutant: mutant of the β3 cytoplasmic domain, Y747A (KLLITIHDRKEFAKFEEERARAKWDTANNPLAKEATSTFTNITYRGT)”, in the test on platelet αIIbβ3, the “inhibition of antibody reactivity with platelet αIIbβ3” value was “completely inhibited”.
The same measure, in the same setting: as for “full-length β3 peptide: full-length linear peptide of the β3 cytoplasmic domain (KLLITIHDRKEFAKFEEERARAKWDTANNPLYKEATSTFTNITYRGT)”, the entry is “only partially inhibited”.
Molecule KVGFFPLEEAAEEGQ registered an EC50 in test [1] of more than 1000 nM.
Still for that read-out and setting: as for KVGFFKRNRPPLEEAAEEGQ, the figure is more than 1000 nM.
In the case of PLEEDDEEGQ, the EC50 in test [1] is more than 1000 nM.
As for NRPPLEEDD [αIIb peptide NRPPLEEDD], in test [2], the concentration for a half-maximal effect (EC50) was found to be 20 nM.
In the case of NRPPLEEDDEEGQ [αIIb peptide NRPPLEEDDEEGQ], in test [2], the 50% effective concentration (EC50) came to 8 nM.

B1: G1-β1A: His-tag, four heptad repeats, one glycine, β1A integrin cytoplasmic domain (protein)
chain: GSSHHHHHHSSGLVPRGSHMCGKLEALEGRLDALEGKLEALEGKLDALEGKLLMIIHDRREFAKFEKEKMNAKWDTGENPIYKSAVTTVVNPKYEGK
Regarding B1, in the test with talin, the “talin binding from cell lysates” value is on record as “bound”.
The molecule RPPLEED [αIIb heptapeptide RPPLEED] displayed an EC50 in test [2] of 30 nM. That is a double-digit nanomolar value.
Regarding KLGFFKRSLPYGTAMEKAQLKPPATSDA (peptide, UniProt P08648 1022-1049, looked up, domain: cytoplasmic domain) [Cytoplasmic domain of integrin α5], the binding result in test [3] is on record as “no binding”.

B2: G4-β1A: β1A construct with three additional glycines between heptad repeats and cytoplasmic domain (protein)
chain: GSSHHHHHHSSGLVPRGSHMKLEALEGRLDALEGKLEALEGKLDALEGGGGKLLMIIHDRREFAKFEKEKMNAKWDTGENPIYKSAVTTVVNPKYEGK
Turning to B2, the “talin binding from cell lysates” value in the test with talin is on record as “bound”.
In test [2], KVGFFKRNRPPLEEDDEEGQ [αIIb peptide KVGFFKRNRPPLEEDDEEGQ] registered an EC50 of 3 nM.
As for KAGFFKRQYKSILQEENRRDSWSYINSKSNDD (peptide, UniProt P13612 1001-1032, looked up, domain: cytoplasmic domain) [Cytoplasmic domain of integrin α4], the binding result in test [3] is on record as “no binding”.
In test [2], KVGFFKRNRPPLEEDD [αIIb peptide KVGFFKRNRPPLEEDD] displayed a 50% effective concentration (EC50) of 5 nM.
Still for that read-out and setting: as for KRNRPPLEEDDEEGQ [αIIb peptide KRNRPPLEEDDEEGQ], the figure is 6 nM.
